Test results taken from the supplement of paper PMC10065799, “High-throughput profiling of sequence recognition by tyrosine kinases and SH2 domains using bacterial peptide display” (eLife, 2023).

What was measured:
AncSZ = assay: phosphorylation enrichment, bacterial display (enrichment ratio); higher = better substrate or ligand; peptides without Tyr show the background
EPHB1 = EPHB1 (UniProt P54762); assay: as above
EPHB2 = EPHB2 (UniProt P29323); assay: as above
FGFR1 = FGFR1 (UniProt P11362); assay: as above
FGFR3 = FGFR3 (UniProt P22607); assay: as above
FGFR3, sequence (P22607 whole entry, looked up): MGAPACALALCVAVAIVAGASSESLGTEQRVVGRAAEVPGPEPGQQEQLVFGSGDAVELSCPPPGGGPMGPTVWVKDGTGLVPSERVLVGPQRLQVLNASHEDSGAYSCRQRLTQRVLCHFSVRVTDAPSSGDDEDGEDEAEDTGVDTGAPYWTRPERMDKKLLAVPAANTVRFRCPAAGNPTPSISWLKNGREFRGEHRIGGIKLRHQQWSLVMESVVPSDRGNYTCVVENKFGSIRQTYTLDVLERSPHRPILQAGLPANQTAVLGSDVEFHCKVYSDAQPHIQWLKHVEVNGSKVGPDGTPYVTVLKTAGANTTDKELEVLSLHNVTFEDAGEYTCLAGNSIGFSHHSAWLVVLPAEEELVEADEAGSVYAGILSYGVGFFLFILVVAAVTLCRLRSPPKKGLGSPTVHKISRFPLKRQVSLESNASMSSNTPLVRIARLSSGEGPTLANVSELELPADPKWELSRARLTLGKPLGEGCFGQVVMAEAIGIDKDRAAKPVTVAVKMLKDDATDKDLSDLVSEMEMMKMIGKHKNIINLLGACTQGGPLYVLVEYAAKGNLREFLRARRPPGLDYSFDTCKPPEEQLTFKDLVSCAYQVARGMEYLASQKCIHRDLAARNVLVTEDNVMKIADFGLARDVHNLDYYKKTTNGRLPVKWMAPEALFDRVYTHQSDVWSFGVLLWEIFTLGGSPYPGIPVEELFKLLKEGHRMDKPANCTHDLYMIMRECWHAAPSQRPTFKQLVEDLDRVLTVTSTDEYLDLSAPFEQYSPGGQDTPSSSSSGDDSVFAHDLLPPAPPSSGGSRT

Fer (mouse) = assay: as above
Fes = Fes (UniProt P07332); assay: as above
Fyn = Fyn (UniProt P06241); assay: as above
Fyn, sequence (P06241 whole entry, looked up): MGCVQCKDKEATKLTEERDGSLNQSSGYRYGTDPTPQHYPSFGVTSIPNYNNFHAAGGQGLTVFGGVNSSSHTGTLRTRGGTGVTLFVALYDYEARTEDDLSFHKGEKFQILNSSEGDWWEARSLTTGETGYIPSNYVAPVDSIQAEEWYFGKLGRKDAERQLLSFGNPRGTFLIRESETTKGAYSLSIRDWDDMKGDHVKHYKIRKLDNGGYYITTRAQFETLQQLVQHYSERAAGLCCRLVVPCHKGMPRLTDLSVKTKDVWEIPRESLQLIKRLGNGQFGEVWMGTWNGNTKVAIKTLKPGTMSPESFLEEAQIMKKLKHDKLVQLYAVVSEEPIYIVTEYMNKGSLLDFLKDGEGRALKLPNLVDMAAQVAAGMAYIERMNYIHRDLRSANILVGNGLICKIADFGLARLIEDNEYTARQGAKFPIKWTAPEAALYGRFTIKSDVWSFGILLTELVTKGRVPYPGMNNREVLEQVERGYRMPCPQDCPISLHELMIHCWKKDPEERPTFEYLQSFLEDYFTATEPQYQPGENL

Hck = Hck (UniProt P08631); assay: as above
Hck, sequence (P08631 whole entry, looked up): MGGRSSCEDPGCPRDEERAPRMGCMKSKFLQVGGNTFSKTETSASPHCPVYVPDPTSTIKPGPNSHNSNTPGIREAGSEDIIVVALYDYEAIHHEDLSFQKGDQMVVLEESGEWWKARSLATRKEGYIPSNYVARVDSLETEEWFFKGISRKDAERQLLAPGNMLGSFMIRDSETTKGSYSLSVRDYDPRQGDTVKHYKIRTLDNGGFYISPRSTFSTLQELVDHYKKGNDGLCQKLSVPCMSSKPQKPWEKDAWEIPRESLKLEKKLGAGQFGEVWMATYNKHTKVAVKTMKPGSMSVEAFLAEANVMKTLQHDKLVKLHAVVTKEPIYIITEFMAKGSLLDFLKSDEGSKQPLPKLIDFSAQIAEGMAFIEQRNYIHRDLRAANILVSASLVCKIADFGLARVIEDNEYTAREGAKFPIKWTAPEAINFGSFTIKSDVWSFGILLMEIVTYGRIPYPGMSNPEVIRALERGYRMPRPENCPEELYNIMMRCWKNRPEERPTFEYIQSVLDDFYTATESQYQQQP

Jak2 = Jak2 (UniProt O60674); assay: as above
MERTK = MERTK (UniProt Q12866); assay: as above
MERTK, sequence (Q12866 whole entry, looked up): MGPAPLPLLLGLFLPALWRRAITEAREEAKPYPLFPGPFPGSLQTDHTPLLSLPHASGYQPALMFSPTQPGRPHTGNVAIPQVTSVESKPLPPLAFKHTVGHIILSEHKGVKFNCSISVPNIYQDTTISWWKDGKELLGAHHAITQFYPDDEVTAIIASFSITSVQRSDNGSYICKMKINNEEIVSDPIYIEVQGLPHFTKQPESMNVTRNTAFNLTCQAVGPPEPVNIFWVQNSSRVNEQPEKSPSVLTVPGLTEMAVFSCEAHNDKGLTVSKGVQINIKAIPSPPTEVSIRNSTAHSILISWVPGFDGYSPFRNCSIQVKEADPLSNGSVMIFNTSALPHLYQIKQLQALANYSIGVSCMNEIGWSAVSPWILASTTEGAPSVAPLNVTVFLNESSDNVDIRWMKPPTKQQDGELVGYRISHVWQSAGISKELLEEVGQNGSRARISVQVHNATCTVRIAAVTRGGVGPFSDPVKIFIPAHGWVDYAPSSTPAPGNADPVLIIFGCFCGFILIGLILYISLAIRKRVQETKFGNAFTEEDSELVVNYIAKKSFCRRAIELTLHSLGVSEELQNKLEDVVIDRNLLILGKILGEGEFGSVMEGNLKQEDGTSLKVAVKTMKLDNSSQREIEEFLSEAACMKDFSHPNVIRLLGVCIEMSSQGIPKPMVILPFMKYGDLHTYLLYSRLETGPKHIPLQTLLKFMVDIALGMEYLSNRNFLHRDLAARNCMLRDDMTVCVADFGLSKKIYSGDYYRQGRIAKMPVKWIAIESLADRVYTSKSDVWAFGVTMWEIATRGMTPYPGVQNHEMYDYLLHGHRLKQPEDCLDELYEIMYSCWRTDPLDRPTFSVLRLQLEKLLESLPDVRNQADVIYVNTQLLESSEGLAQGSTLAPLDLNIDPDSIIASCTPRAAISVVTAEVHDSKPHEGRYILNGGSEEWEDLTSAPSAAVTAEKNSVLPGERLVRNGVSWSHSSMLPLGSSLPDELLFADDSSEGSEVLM

c-Abl (mouse) = assay: as above
c-Src = assay: as above
Grb2 SH2 = Grb2 SH2 (UniProt P62993); assay: SH2 binding enrichment of the phosphorylated peptide, bacterial display (enrichment ratio); higher = better substrate or ligand; peptides without Tyr show the background
SHP2-C SH2 = assay: as above
c-Src SH2 = assay: as above
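For SH2 binding enrichment of the phosphorylated peptide, bacterial display in this document: peptide library displayed on the E. coli surface as eCPX fusions, selected cells deep-sequenced, score is each peptide's frequency after selection divided by its frequency in the input.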
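For phosphorylation enrichment, bacterial display in this document: 11-residue human phosphosite peptides and single-mutation variants displayed on the E. coli surface, counted by deep sequencing, each peptide's frequency after selection divided by its frequency in the unselected input library; frequency after pTyr selection over input frequency; kinase dosed for 20-30% of maximal phosphorylation in three min.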

EPHB1, sequence (P54762 whole entry, looked up): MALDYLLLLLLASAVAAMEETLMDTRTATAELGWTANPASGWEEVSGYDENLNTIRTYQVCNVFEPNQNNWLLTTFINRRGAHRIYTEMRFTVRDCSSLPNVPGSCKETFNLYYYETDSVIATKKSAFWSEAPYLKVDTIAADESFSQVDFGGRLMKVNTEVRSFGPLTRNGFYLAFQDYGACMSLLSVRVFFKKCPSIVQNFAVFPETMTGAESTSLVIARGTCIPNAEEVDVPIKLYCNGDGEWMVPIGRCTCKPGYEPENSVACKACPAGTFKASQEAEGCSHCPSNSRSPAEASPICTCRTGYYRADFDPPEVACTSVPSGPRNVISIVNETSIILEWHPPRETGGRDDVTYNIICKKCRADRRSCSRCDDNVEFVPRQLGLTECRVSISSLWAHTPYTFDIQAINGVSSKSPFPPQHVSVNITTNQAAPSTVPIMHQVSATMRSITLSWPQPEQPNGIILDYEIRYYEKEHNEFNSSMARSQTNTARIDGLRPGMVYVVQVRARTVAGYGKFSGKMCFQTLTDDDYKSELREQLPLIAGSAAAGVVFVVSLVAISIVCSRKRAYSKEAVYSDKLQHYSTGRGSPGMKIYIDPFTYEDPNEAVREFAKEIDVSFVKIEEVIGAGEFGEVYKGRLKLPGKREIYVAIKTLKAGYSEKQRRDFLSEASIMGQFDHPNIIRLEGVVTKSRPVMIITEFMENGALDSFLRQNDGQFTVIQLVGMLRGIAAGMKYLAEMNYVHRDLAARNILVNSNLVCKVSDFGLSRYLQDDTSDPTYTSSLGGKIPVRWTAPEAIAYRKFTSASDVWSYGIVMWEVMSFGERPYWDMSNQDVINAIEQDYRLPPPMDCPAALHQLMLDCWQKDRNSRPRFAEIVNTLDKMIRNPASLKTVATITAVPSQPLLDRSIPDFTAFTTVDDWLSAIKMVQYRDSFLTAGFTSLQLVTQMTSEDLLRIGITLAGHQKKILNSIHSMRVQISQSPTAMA
EPHB2, sequence (P29323 whole entry, looked up): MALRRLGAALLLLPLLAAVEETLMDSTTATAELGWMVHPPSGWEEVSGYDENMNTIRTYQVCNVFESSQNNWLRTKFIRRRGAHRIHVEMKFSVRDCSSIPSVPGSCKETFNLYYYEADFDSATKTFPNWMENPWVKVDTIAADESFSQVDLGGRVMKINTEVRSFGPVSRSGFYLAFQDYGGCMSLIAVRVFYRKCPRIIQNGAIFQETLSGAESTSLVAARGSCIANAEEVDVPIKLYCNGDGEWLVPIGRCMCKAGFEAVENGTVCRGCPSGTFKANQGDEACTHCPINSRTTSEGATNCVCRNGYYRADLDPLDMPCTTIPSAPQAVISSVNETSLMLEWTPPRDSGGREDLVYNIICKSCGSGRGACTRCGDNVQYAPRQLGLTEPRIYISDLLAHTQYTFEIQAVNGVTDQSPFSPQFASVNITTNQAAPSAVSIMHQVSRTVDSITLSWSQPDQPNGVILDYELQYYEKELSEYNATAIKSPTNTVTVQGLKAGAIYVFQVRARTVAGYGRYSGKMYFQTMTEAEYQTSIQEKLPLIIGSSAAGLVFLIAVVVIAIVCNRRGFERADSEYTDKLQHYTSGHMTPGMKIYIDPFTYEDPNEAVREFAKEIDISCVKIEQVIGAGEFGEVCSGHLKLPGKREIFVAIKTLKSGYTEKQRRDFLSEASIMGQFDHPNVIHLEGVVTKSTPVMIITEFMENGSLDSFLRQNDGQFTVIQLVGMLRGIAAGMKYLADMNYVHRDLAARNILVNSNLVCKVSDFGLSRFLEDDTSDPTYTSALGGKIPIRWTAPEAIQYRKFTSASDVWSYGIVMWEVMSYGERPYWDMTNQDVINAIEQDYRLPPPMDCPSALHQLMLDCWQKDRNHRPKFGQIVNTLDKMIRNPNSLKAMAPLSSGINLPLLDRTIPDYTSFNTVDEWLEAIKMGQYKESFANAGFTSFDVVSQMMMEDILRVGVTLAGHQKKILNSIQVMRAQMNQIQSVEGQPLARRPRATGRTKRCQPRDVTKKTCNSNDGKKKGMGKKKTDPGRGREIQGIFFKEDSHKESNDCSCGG

Sequence | SH2 binding enrichment (Grb2 SH2) | SH2 binding enrichment (SHP2-C SH2) | SH2 binding enrichment (c-Src SH2) | phosphorylation enrichment (AncSZ) | phosphorylation enrichment (EPHB1) | phosphorylation enrichment (EPHB2) | phosphorylation enrichment (FGFR1) | phosphorylation enrichment (FGFR3) | phosphorylation enrichment (Fer (mouse)) | phosphorylation enrichment (Fes) | phosphorylation enrichment (Fyn) | phosphorylation enrichment (Hck) | phosphorylation enrichment (Jak2) | phosphorylation enrichment (MERTK) | phosphorylation enrichment (c-Abl (mouse)) | phosphorylation enrichment (c-Src)
TKDTFHKQPMF [GBA_Y451_Y451H] | 0.884 | 0.884 | 0.547 | 0.454 | 0.29 | 0.352 | 0.304 | 0.391 | 0.249 | 0.476 | 0.333 | 0.312 | 0.468 | 0.403 | 0.445 | 0.459
TKDTFYKQPMF [GBA_Y451] | 0.571 | 0.692 | 0.401 | 0.583 | 0.257 | 0.37 | 0.389 | 0.42 | 0.362 | 0.638 | 0.419 | 0.39 | 0.535 | 0.385 | 0.954 | 0.42
TKFVAYIESQG [KDM4B_Y34_N29T_YF] | 0.736 | 0.703 | 0.6 | 0.974 | 0.499 | 0.56 | 0.51 | 0.685 | 0.403 | 1.02 | 0.497 | 0.578 | 1.12 | 0.307 | 0.64 | 0.396
TLCLCYKETEE [ATP8B1_Y658_I661T] | 0.783 | 0.672 | 0.496 | 1.42 | 0.879 | 0.749 | 0.573 | 0.903 | 0.737 | 1.64 | 0.708 | 0.647 | 1.53 | 0.483 | 1.29 | 0.617
TMETKYDNISR [SETDB2_Y477_V473M] | 1.01 | 0.876 | 3.56 | 0.652 | 0.356 | 0.424 | 0.678 | 0.474 | 0.403 | 0.689 | 0.414 | 0.431 | 0.808 | 0.469 | 0.665 | 0.429
TNGFTCGSSHQ [MANEA_Y331_Y331C] | 0.791 | 0.642 | 0.544 | 0.608 | 0.451 | 0.486 | 0.46 | 0.545 | 0.412 | 0.836 | 0.618 | 0.477 | 0.663 | 0.435 | 0.728 | 0.392
TQPSPYAVYRF [RPGRIP1_Y823] | 0.847 | 1.04 | 1.7 | 0.912 | 1.22 | 1.84 | 0.794 | 0.795 | 9 | 0.834 | 11.5 | 7.95 | 0.898 | 8.69 | 22.2 | 10.1
TQRPFYKGGGG [TYROBP_Y112_YF] | 0.947 | 0.7 | 0.65 | 0.48 | 0.221 | 0.31 | 0.346 | 0.438 | 0.331 | 0.512 | 0.314 | 0.42 | 0.451 | 0.331 | 0.624 | 0.403
TSEASYYKSLN [NGEF_Y288] | 0.684 | 0.518 | 0.528 | 0.743 | 0.575 | 0.498 | 0.516 | 0.707 | 0.464 | 0.789 | 0.464 | 0.407 | 0.802 | 0.535 | 0.658 | 0.49
TSPALYRLDLD [TRIL_Y352_A347T] | 0.685 | 0.465 | 0.36 | 0.943 | 0.567 | 0.51 | 0.529 | 0.721 | 0.499 | 1.24 | 0.74 | 0.817 | 0.859 | 0.395 | 0.741 | 1.44
TVDASYYGGRG [ANTXR2_Y380] | 0.763 | 0.424 | 0.604 | 0.512 | 0.411 | 0.503 | 0.546 | 0.561 | 0.559 | 0.66 | 0.73 | 1.14 | 0.609 | 0.495 | 0.576 | 0.642
TVETKYDNISR [SETDB2_Y477] | 0.959 | 0.769 | 3.03 | 0.72 | 0.71 | 0.379 | 0.545 | 0.553 | 0.433 | 0.745 | 0.519 | 0.477 | 0.667 | 0.393 | 0.643 | 0.461
TVNIRYLLFPS [SERAC1_Y548_S543T] | 1.9 | 1.46 | 1.26 | 1.21 | 0.728 | 0.725 | 0.578 | 0.829 | 0.564 | 1.21 | 0.577 | 0.574 | 1.11 | 0.606 | 0.716 | 0.434
TYGVVYKARNK [CDK2_Y19] | 0.788 | 0.253 | 0.548 | 1.18 | 0.369 | 0.563 | 0.354 | 0.515 | 0.46 | 0.691 | 1.81 | 1.47 | 0.485 | 0.41 | 0.272 | 1.33
TYVKSYTIHYS [F5_Y2153_M2148T] | 0.791 | 0.783 | 0.652 | 1.27 | 0.594 | 0.722 | 0.4 | 0.696 | 0.568 | 1.15 | 0.508 | 0.567 | 0.633 | 0.483 | 0.625 | 0.44
VEKEKYVSFIS [JMJD1C_Y596_M591V_YF] | 0.708 | 0.454 | 0.633 | 0.762 | 0.467 | 0.52 | 0.493 | 0.793 | 0.36 | 0.796 | 0.477 | 0.577 | 0.755 | 0.408 | 0.521 | 0.396
VFDHIYTTQSD [RET_Y928_L923V] | 0.902 | 0.864 | 0.738 | 0.978 | 0.458 | 0.467 | 0.55 | 0.682 | 0.443 | 0.871 | 2.12 | 1.14 | 0.671 | 0.579 | 0.44 | 2.41
VFFDLYGGEKF [PTPN11_Y66_D61V_YF] | 1.04 | 0.77 | 0.572 | 1.03 | 0.803 | 0.596 | 0.443 | 0.598 | 0.509 | 1.11 | 1.42 | 2.08 | 0.835 | 0.517 | 0.914 | 2.04
VFFFSYLLKNH [PTEN_Y180_YF] | 0.982 | 0.896 | 0.616 | 1.06 | 0.559 | 0.519 | 0.643 | 0.729 | 0.537 | 1.57 | 0.373 | 0.391 | 1.11 | 0.362 | 0.918 | 0.426
VGEGPYLISDL [ABCC12_Y7] | 0.786 | 0.663 | 0.414 | 0.952 | 0.65 | 0.5 | 0.466 | 0.734 | 0.578 | 1.01 | 0.507 | 0.483 | 1.05 | 0.468 | 0.768 | 0.752
VGTTAYMAPEA [IRAK4_Y354] | 0.918 | 0.692 | 0.568 | 0.707 | 0.385 | 0.379 | 0.418 | 0.517 | 0.452 | 0.893 | 0.407 | 0.434 | 0.689 | 0.354 | 0.537 | 0.414
VIKDKYPKAHY [APTX_Y209_R213H] | 1.19 | 1.11 | 0.956 | 0.449 | 0.268 | 0.359 | 0.34 | 0.505 | 0.358 | 0.599 | 0.278 | 0.273 | 0.579 | 0.285 | 0.561 | 0.377

Now from value to sequence, other results behind:

SH2 binding enrichment (Grb2 SH2) | SH2 binding enrichment (SHP2-C SH2) | SH2 binding enrichment (c-Src SH2) | Sequence | phosphorylation enrichment (AncSZ) | phosphorylation enrichment (EPHB1) | phosphorylation enrichment (EPHB2) | phosphorylation enrichment (FGFR1) | phosphorylation enrichment (FGFR3) | phosphorylation enrichment (Fer (mouse)) | phosphorylation enrichment (Fes) | phosphorylation enrichment (Fyn) | phosphorylation enrichment (Hck) | phosphorylation enrichment (Jak2) | phosphorylation enrichment (MERTK) | phosphorylation enrichment (c-Abl (mouse)) | phosphorylation enrichment (c-Src)
0.855 | 0.893 | 0.388 | TIWDSYTTNKV [GNB1_Y85_I80T] | 0.964 | 0.537 | 0.452 | 0.509 | 0.633 | 0.485 | 1.11 | 0.444 | 0.473 | 1.19 | 0.463 | 0.699 | 0.496
0.788 | 0.537 | 0.449 | TLRKTYGEMAD [ALB_Y108_E106K] | 0.535 | 0.307 | 0.355 | 0.508 | 0.51 | 0.379 | 0.709 | 0.387 | 0.433 | 0.752 | 0.381 | 0.462 | 0.419
0.871 | 0.538 | 6.41 | TRSYDYMEGGD [FGF7_Y58] | 1.02 | 0.58 | 0.593 | 0.486 | 0.731 | 0.456 | 1.03 | 0.458 | 0.488 | 0.802 | 0.45 | 0.586 | 0.447
0.73 | 0.598 | 0.661 | TTICKYITPME [GUCY2C_Y839_S840I] | 0.99 | 0.485 | 0.466 | 0.558 | 0.56 | 0.417 | 0.873 | 0.418 | 0.469 | 0.728 | 0.421 | 0.56 | 0.458
0.62 | 0.331 | 0.382 | VDASYCGGRGV [ANTXR2_Y381_Y381C] | 0.712 | 0.373 | 0.28 | 0.405 | 0.463 | 0.48 | 0.63 | 0.676 | 0.342 | 0.573 | 0.559 | 0.519 | 0.476
0.738 | 0.638 | 0.471 | VDASYYGGRGV [ANTXR2_Y381] | 0.702 | 0.708 | 0.386 | 0.772 | 0.647 | 0.46 | 0.665 | 0.786 | 1.92 | 0.804 | 0.775 | 0.698 | 0.999
0.693 | 0.55 | 0.519 | VDGFVYKLHPS [GCK_Y413_S411F] | 0.844 | 0.434 | 0.484 | 0.407 | 0.55 | 0.368 | 0.962 | 0.53 | 0.419 | 0.999 | 0.288 | 0.562 | 0.643
0.946 | 0.932 | 0.545 | VDSTEYEVASQ [SLC7A7_Y7] | 1.25 | 0.632 | 0.646 | 0.544 | 0.776 | 0.598 | 1.16 | 0.499 | 0.549 | 1.04 | 0.436 | 0.825 | 0.514
0.764 | 0.501 | 0.498 | VECQVYAEDPF [PCCA_Y401_R399Q_YF] | 1.22 | 0.6 | 0.548 | 0.446 | 1.16 | 0.663 | 1.24 | 0.52 | 0.587 | 0.99 | 0.408 | 0.748 | 0.602
0.877 | 0.666 | 0.504 | VEDPEYAVTQP [STOML2_Y124_L129P] | 1.54 | 0.567 | 0.602 | 0.646 | 0.848 | 0.664 | 1.33 | 0.543 | 0.608 | 1.32 | 0.473 | 1 | 0.58
0.653 | 0.887 | 0.453 | VGGRIYTDDGL [PKLR_Y218_I219T] | 0.768 | 0.412 | 0.592 | 0.427 | 0.612 | 0.463 | 0.921 | 0.427 | 0.426 | 0.595 | 0.37 | 0.629 | 0.306
